± gives the standard error. For some of these results: This sample holds only a part of the variants without activity.
B1: glmS ribozyme (parent)
chain: AUAAAAGCGCCAGAACUACAGAAAUGUAGUUGACGAGGAGGAGGUUUAUCGAAUUUUCGGCGGAUGCCUCCAAA

Legend:
Settings in all cases: with glucosamine-6-phosphate
[1] = variants of: B1; test: kcat; higher = faster cleavage; RNA array
Summary of the method: (§1)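 Using a hybridised Cy3 probe at 37 °C, barcoded ribozyme variants transcribed in situ by E. coli RNA polymerase on sequenced MiSeq chips were monitored across tiles imaged over ~14 h. The flow contained glucosamine-6-phosphate from 40 μM to 10 mM in HEPES/KCl/Mg(OAc)2 buffer. Signals were normalised to baseline and to non-cleaving reference variants before per-tile medians were fit to one- or two-exponential decays to yield kobs. Weighted Michaelis–Menten fits across concentrations gave kcat and KM.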

[2] = variants of: B1; test: KM; higher = weaker cofactor use; RNA array
Summary of the method: as §1

[3] = variants of: B1; test: self-cleavage kobs at 640 uM GlcN6P; higher = faster cleavage; RNA array
Summary of the method: as §1

[4] = variants of: B1; test: self-cleavage kobs at 2500 uM GlcN6P; higher = faster cleavage; RNA array
Summary of the method: as §1

[5] = variants of: B1; test: self-cleavage kobs at 10000 uM GlcN6P; higher = faster cleavage; RNA array
Summary of the method: as §1

[6] = variants of: B1; test: self-cleavage kobs at 40 uM GlcN6P; higher = faster cleavage; RNA array
Summary of the method: as §1

[7] = variants of: B1; test: self-cleavage kobs at 160 uM GlcN6P; higher = faster cleavage; RNA array
Summary of the method: as §1

Variant	kcat [1] [s⁻¹]	KM [2] [µM]	self-cleavage kobs at 640 uM GlcN6P [3] [s⁻¹]	self-cleavage kobs at 2500 uM GlcN6P [4] [s⁻¹]	self-cleavage kobs at 10000 uM GlcN6P [5] [s⁻¹]	self-cleavage kobs at 40 uM GlcN6P [6] [s⁻¹]	self-cleavage kobs at 160 uM GlcN6P [7] [s⁻¹]
G26U A48C	0.000587 ± 6e-05	4480 ± 710	7.06e-05 ± 1.4e-05	0.000222 ± 3.5e-05	0.000394 ± 7.4e-05		
C16U U46G	0.00589 ± 0.00074	1810 ± 320	0.00131 ± 0.00016	0.00323 ± 0.0005	0.00531 ± 0.00055	0.00014 ± 1.3e-05	0.000489 ± 8.8e-05
A20G C58U C70G	7.18e-05 ± 2.9e-05		0.000104 ± 2.6e-05	7.21e-05 ± 1.9e-05			
C16U C50A	2.89e-05 ± 7.6e-06			4.91e-05 ± 1.8e-05	2.32e-05 ± 1.1e-05		
C16A C67U	0.000302 ± 4.6e-05	782 ± 280	0.000122 ± 1.3e-05	0.000286 ± 3.2e-05	0.000261 ± 3.1e-05		6.4e-05 ± 1.4e-05
A15U U55A	0.00715 ± 0.0012	2060 ± 490	0.00147 ± 0.00021	0.00588 ± 0.0011	0.00586 ± 0.00053	0.000164 ± 1.8e-05	0.000472 ± 5.3e-05
A15U C16G G59C G60A C67U	< 1e-05						
C16A U45C	9.45e-05 ± 2.3e-05			8.36e-05 ± 2.3e-05	7.72e-05 ± 1.4e-05		
C16G G32C	0.000124 ± 1.6e-05	4550 ± 1400		4.67e-05 ± 9.8e-06	8.49e-05 ± 1e-05		
C16G A53U	0.00332 ± 0.00045	1910 ± 380	0.000752 ± 0.00012	0.00182 ± 0.0004	0.00295 ± 0.00047	8.15e-05 ± 1.4e-05	0.000238 ± 6e-05
C16A U46G	0.000285 ± 5.2e-05	1720 ± 670	7.33e-05 ± 1.3e-05	0.000212 ± 3e-05	0.000222 ± 3.3e-05		
C16G C50A U57C C68U C71G	2.93e-05 ± 8.8e-06						
A15G U65G	0.0045 ± 0.0017	4200 ± 2000	0.000664 ± 0.00013	0.00285 ± 0.0006	0.00279 ± 0.00062	4.05e-05 ± 1e-05	0.000133 ± 3.7e-05
C16U U31C	0.00735 ± 0.00094	1980 ± 350	0.00161 ± 0.00048	0.0036 ± 0.00062	0.00694 ± 0.0011	0.000149 ± 2.1e-05	0.000588 ± 0.00011
A15U U54G U65G	0.000547 ± 5.8e-05	1670 ± 300	0.000149 ± 2.4e-05	0.00039 ± 0.00013	0.00045 ± 0.00011		
G29A G38C	< 1e-05				< 1e-05		

From the supplement of paper PMC7125110
